Patent US20230303667A1
Values joined by “and” are separate entries in the source; they are usually repeats but may differ in a detail not shown here. Equal entries are not always repeated.

Target: Ebola virus Full length GP (Ebola virus (strain not stated))
Assay: ELISA on Full length GP

Q: For 13F6 (antibody), which EC50 is on record?
A: The EC50 was 0.004 µg/mL and 0.0027 nM.
